Experimental data: patent CN116813769A (FUZHOU CREMAB PHARMACEUTICAL INC, dated 2023)

Key:
[1] = target: T1, 人CD47胞外段-His tag重组蛋白 (SinoBiological 12283-H08H) (human, UniProt Q08722 19-139); test: BLI (Octet K2), HIS1K sensor loaded with CD47-his tag, antibody in solution, 1:1 fit
T1 construct: extracellular domain; Bought reagent; Captured on HIS1K sensor; also called CD47-his tag蛋白

[2] = target: T2, 经生物素标记的CD47-hFc蛋白 (biotin-labelled CD47-hFc protein, expressed in house) (UniProt Q08722 19-141, biotin-labelled (site not stated)); test: BLI (Octet K2), SA sensor loaded with biotinylated CD47-hFc, antibody in solution, 1:1 fit
T2 construct: Self-expressed; Captured on SA sensor
T2 sequence (Q08722 19-141): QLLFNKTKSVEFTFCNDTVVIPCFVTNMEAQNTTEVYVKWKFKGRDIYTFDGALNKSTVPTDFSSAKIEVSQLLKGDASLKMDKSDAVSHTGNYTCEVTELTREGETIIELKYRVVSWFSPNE

T1 sequence (Q08722 19-139 limits assumed): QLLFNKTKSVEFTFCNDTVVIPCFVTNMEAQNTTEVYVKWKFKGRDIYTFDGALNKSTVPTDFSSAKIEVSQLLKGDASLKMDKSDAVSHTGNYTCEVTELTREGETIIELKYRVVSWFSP

Binder | Kd [1] [nM] | Kd [2] [nM]
7DC2 (antibody, human IgG1, kappa, V domains shown, Full-length chimeric antibody (mouse variable regions, human constant regions); also called 7DC2抗体) VH: QVQLQQSGPELVKPGASVKMSCKASGYTFTNYFMHWVKQKPGQGLEWIGYINPYNDGTKYNEKFKGKATLTSDKSSSTAYMELSSLTSEDSAVYYCTKGGRYSMDYWGQGTTLTVSS VL: DVVMTQTPLSLPVRLGDEVSISCRSSQTIVFTNGNTYLEWYLQKPGQSPKLLIYKVSNRFSGVPDRFSGSGSGTDFTLTISRVEAEDLGIYYCFQGSHVPYTFGGGTKLELKR | 0.221 | 0.192
7DC4 (antibody, human IgG1, kappa, V domains shown, Full-length chimeric antibody (mouse variable regions, human constant regions); also called 7DC4抗体) VH: QVQLKQSGAELVQPGASVKLSCKASGYTFTNYYMYWLRQRPGQGLEWIGEINPSNGGTDFNEKFKSKATLTVDKSSSTAFMQLSSLTSDDSAVYYCARGGFTMDYWGQGTTVTVSS VL: DVVMTQTPLSLPVSLGDQASISCRSSQSLVHSNGNTYLHWYLQKPGQSPKLLIYKVSNRFSGVPDRFSGSGSGTDFTLKISRVEAEDLGVYFCSQSTHVPLTFGAGTKLELKR | 0.0202 | 0.0276
